Experimental data taken from patent US20200270325A1 (Merck Sharp & Dohme, published 2020).
Numbered stars: 1 amine (or outer) side, 2 acyl side, 3 side chain; on linkers, the order of the positions; unused ones are H or OH. Square brackets hold non-standard residues; d marks the D form. Side chains are listed from the residue outwards. Ends that are not written are not given here. * marks the point of attachment. C16 diacid = O=C(O)CCCCCCCCCCCCCCC(=O)*; γGlu = O=C(O)[C@H](CCC(=O)[*:2])N[*:1]; Met(O2) = CS(=O)(=O)CC[C@H](N)C(=O)O; AEEA = NCCOCCOCC(=O)O; Aib = CC(C)(N)C(=O)O

B1: TP811 (peptide)
peptide: H[Aib]QGTFTSDYSKYLD[Aib]RAAQDFVK([AEEA-AEEA-γGlu-C16 diacid])WL[Met(O2)]DT-NH2
modifications: N-terminus assumed
SMILES: CC(C)C[C@H](NC(=O)[C@H](Cc1c[nH]c2ccccc12)NC(=O)[C@H](CCCCNC(=O)COCCOCCNC(=O)COCCOCCNC(=O)CC[C@H](NC(=O)CCCCCCCCCCCCCCC(=O)O)C(=O)O)NC(=O)[C@@H](NC(=O)[C@H](Cc1ccccc1)NC(=O)[C@H](CC(=O)O)NC(=O)[C@H](CCC(N)=O)NC(=O)[C@H](C)NC(=O)[C@H](C)NC(=O)[C@H](CCCNC(=N)N)NC(=O)C(C)(C)NC(=O)[C@H](CC(=O)O)NC(=O)[C@H](CC(C)C)NC(=O)[C@H](Cc1ccc(O)cc1)NC(=O)[C@H](CCCCN)NC(=O)[C@H](CO)NC(=O)[C@H](Cc1ccc(O)cc1)NC(=O)[C@H](CC(=O)O)NC(=O)[C@H](CO)NC(=O)[C@@H](NC(=O)[C@H](Cc1ccccc1)NC(=O)[C@@H](NC(=O)CNC(=O)[C@H](CCC(N)=O)NC(=O)C(C)(C)NC(=O)[C@@H](N)Cc1c[nH]cn1)[C@@H](C)O)[C@@H](C)O)C(C)C)C(=O)N[C@@H](CCS(C)(=O)=O)C(=O)N[C@@H](CC(=O)O)C(=O)N[C@H](C(N)=O)[C@@H](C)O
B2: TP812 (peptide)
peptide: H[Aib]QGTFTSDYSKYLDARAAK([AEEA-AEEA-γGlu-C16 diacid])EFVQWL[Met(O2)]DT-NH2
modifications: N-terminus assumed
SMILES: CC(C)C[C@H](NC(=O)[C@H](Cc1ccc(O)cc1)NC(=O)[C@H](CCCCN)NC(=O)[C@H](CO)NC(=O)[C@H](Cc1ccc(O)cc1)NC(=O)[C@H](CC(=O)O)NC(=O)[C@H](CO)NC(=O)[C@@H](NC(=O)[C@H](Cc1ccccc1)NC(=O)[C@@H](NC(=O)CNC(=O)[C@H](CCC(N)=O)NC(=O)C(C)(C)NC(=O)[C@@H](N)Cc1c[nH]cn1)[C@@H](C)O)[C@@H](C)O)C(=O)N[C@@H](CC(=O)O)C(=O)N[C@@H](C)C(=O)N[C@@H](CCCNC(=N)N)C(=O)N[C@@H](C)C(=O)N[C@@H](C)C(=O)N[C@@H](CCCCNC(=O)COCCOCCNC(=O)COCCOCCNC(=O)CC[C@H](NC(=O)CCCCCCCCCCCCCCC(=O)O)C(=O)O)C(=O)N[C@@H](CCC(=O)O)C(=O)N[C@@H](Cc1ccccc1)C(=O)N[C@H](C(=O)N[C@@H](CCC(N)=O)C(=O)N[C@@H](Cc1c[nH]c2ccccc12)C(=O)N[C@@H](CC(C)C)C(=O)N[C@@H](CCS(C)(=O)=O)C(=O)N[C@@H](CC(=O)O)C(=O)N[C@H](C(N)=O)[C@@H](C)O)C(C)C
B3: TP813 (peptide)
peptide: H[Aib]QGTFTSDYSKYLDARAAQEFVK([AEEA-AEEA-γGlu-C16 diacid])WL[Met(O2)]DT-NH2
modifications: N-terminus assumed
SMILES: CC(C)C[C@H](NC(=O)[C@H](Cc1ccc(O)cc1)NC(=O)[C@H](CCCCN)NC(=O)[C@H](CO)NC(=O)[C@H](Cc1ccc(O)cc1)NC(=O)[C@H](CC(=O)O)NC(=O)[C@H](CO)NC(=O)[C@@H](NC(=O)[C@H](Cc1ccccc1)NC(=O)[C@@H](NC(=O)CNC(=O)[C@H](CCC(N)=O)NC(=O)C(C)(C)NC(=O)[C@@H](N)Cc1c[nH]cn1)[C@@H](C)O)[C@@H](C)O)C(=O)N[C@@H](CC(=O)O)C(=O)N[C@@H](C)C(=O)N[C@@H](CCCNC(=N)N)C(=O)N[C@@H](C)C(=O)N[C@@H](C)C(=O)N[C@@H](CCC(N)=O)C(=O)N[C@@H](CCC(=O)O)C(=O)N[C@@H](Cc1ccccc1)C(=O)N[C@H](C(=O)N[C@@H](CCCCNC(=O)COCCOCCNC(=O)COCCOCCNC(=O)CC[C@H](NC(=O)CCCCCCCCCCCCCCC(=O)O)C(=O)O)C(=O)N[C@@H](Cc1c[nH]c2ccccc12)C(=O)N[C@@H](CC(C)C)C(=O)N[C@@H](CCS(C)(=O)=O)C(=O)N[C@@H](CC(=O)O)C(=O)N[C@H](C(N)=O)[C@@H](C)O)C(C)C
B4: TP814 (peptide)
peptide: H[Aib]QGTFTSDYSKYLDARAAK([AEEA-AEEA-γGlu-C16 diacid])DFVQWL[Met(O2)]ET-NH2
modifications: N-terminus assumed
SMILES: CC(C)C[C@H](NC(=O)[C@H](Cc1ccc(O)cc1)NC(=O)[C@H](CCCCN)NC(=O)[C@H](CO)NC(=O)[C@H](Cc1ccc(O)cc1)NC(=O)[C@H](CC(=O)O)NC(=O)[C@H](CO)NC(=O)[C@@H](NC(=O)[C@H](Cc1ccccc1)NC(=O)[C@@H](NC(=O)CNC(=O)[C@H](CCC(N)=O)NC(=O)C(C)(C)NC(=O)[C@@H](N)Cc1c[nH]cn1)[C@@H](C)O)[C@@H](C)O)C(=O)N[C@@H](CC(=O)O)C(=O)N[C@@H](C)C(=O)N[C@@H](CCCNC(=N)N)C(=O)N[C@@H](C)C(=O)N[C@@H](C)C(=O)N[C@@H](CCCCNC(=O)COCCOCCNC(=O)COCCOCCNC(=O)CC[C@H](NC(=O)CCCCCCCCCCCCCCC(=O)O)C(=O)O)C(=O)N[C@@H](CC(=O)O)C(=O)N[C@@H](Cc1ccccc1)C(=O)N[C@H](C(=O)N[C@@H](CCC(N)=O)C(=O)N[C@@H](Cc1c[nH]c2ccccc12)C(=O)N[C@@H](CC(C)C)C(=O)N[C@@H](CCS(C)(=O)=O)C(=O)N[C@@H](CCC(=O)O)C(=O)N[C@H](C(N)=O)[C@@H](C)O)C(C)C
B5: TP815 (peptide)
peptide: H[Aib]QGTFTSDYSKYLD[Aib]RAAQDFVK([AEEA-AEEA-γGlu-C16 diacid])WL[Met(O2)]ET-NH2
modifications: N-terminus assumed
SMILES: CC(C)C[C@H](NC(=O)[C@H](Cc1c[nH]c2ccccc12)NC(=O)[C@H](CCCCNC(=O)COCCOCCNC(=O)COCCOCCNC(=O)CC[C@H](NC(=O)CCCCCCCCCCCCCCC(=O)O)C(=O)O)NC(=O)[C@@H](NC(=O)[C@H](Cc1ccccc1)NC(=O)[C@H](CC(=O)O)NC(=O)[C@H](CCC(N)=O)NC(=O)[C@H](C)NC(=O)[C@H](C)NC(=O)[C@H](CCCNC(=N)N)NC(=O)C(C)(C)NC(=O)[C@H](CC(=O)O)NC(=O)[C@H](CC(C)C)NC(=O)[C@H](Cc1ccc(O)cc1)NC(=O)[C@H](CCCCN)NC(=O)[C@H](CO)NC(=O)[C@H](Cc1ccc(O)cc1)NC(=O)[C@H](CC(=O)O)NC(=O)[C@H](CO)NC(=O)[C@@H](NC(=O)[C@H](Cc1ccccc1)NC(=O)[C@@H](NC(=O)CNC(=O)[C@H](CCC(N)=O)NC(=O)C(C)(C)NC(=O)[C@@H](N)Cc1c[nH]cn1)[C@@H](C)O)[C@@H](C)O)C(C)C)C(=O)N[C@@H](CCS(C)(=O)=O)C(=O)N[C@@H](CCC(=O)O)C(=O)N[C@H](C(N)=O)[C@@H](C)O
B6: TP825 (peptide)
peptide: H[Aib]QGTFTSDYSKYLDARAAQK([AEEA-AEEA-γGlu-C16 diacid])FVQWL[Met(O2)]ET-NH2
modifications: N-terminus assumed
SMILES: CC(C)C[C@H](NC(=O)[C@H](Cc1ccc(O)cc1)NC(=O)[C@H](CCCCN)NC(=O)[C@H](CO)NC(=O)[C@H](Cc1ccc(O)cc1)NC(=O)[C@H](CC(=O)O)NC(=O)[C@H](CO)NC(=O)[C@@H](NC(=O)[C@H](Cc1ccccc1)NC(=O)[C@@H](NC(=O)CNC(=O)[C@H](CCC(N)=O)NC(=O)C(C)(C)NC(=O)[C@@H](N)Cc1c[nH]cn1)[C@@H](C)O)[C@@H](C)O)C(=O)N[C@@H](CC(=O)O)C(=O)N[C@@H](C)C(=O)N[C@@H](CCCNC(=N)N)C(=O)N[C@@H](C)C(=O)N[C@@H](C)C(=O)N[C@@H](CCC(N)=O)C(=O)N[C@@H](CCCCNC(=O)COCCOCCNC(=O)COCCOCCNC(=O)CC[C@H](NC(=O)CCCCCCCCCCCCCCC(=O)O)C(=O)O)C(=O)N[C@@H](Cc1ccccc1)C(=O)N[C@H](C(=O)N[C@@H](CCC(N)=O)C(=O)N[C@@H](Cc1c[nH]c2ccccc12)C(=O)N[C@@H](CC(C)C)C(=O)N[C@@H](CCS(C)(=O)=O)C(=O)N[C@@H](CCC(=O)O)C(=O)N[C@H](C(N)=O)[C@@H](C)O)C(C)C
B7: TP826 (peptide)
peptide: H[Aib]QGTFTSDYSKYLDARAAK([AEEA-AEEA-γGlu-C16 diacid])DFVQWL[Met(O2)][γGlu]T-NH2
modifications: N-terminus assumed
SMILES: CC(C)C[C@H](NC(=O)[C@H](Cc1ccc(O)cc1)NC(=O)[C@H](CCCCN)NC(=O)[C@H](CO)NC(=O)[C@H](Cc1ccc(O)cc1)NC(=O)[C@H](CC(=O)O)NC(=O)[C@H](CO)NC(=O)[C@@H](NC(=O)[C@H](Cc1ccccc1)NC(=O)[C@@H](NC(=O)CNC(=O)[C@H](CCC(N)=O)NC(=O)C(C)(C)NC(=O)[C@@H](N)Cc1c[nH]cn1)[C@@H](C)O)[C@@H](C)O)C(=O)N[C@@H](CC(=O)O)C(=O)N[C@@H](C)C(=O)N[C@@H](CCCNC(=N)N)C(=O)N[C@@H](C)C(=O)N[C@@H](C)C(=O)N[C@@H](CCCCNC(=O)COCCOCCNC(=O)COCCOCCNC(=O)CC[C@H](NC(=O)CCCCCCCCCCCCCCC(=O)O)C(=O)O)C(=O)N[C@@H](CC(=O)O)C(=O)N[C@@H](Cc1ccccc1)C(=O)N[C@H](C(=O)N[C@@H](CCC(N)=O)C(=O)N[C@@H](Cc1c[nH]c2ccccc12)C(=O)N[C@@H](CC(C)C)C(=O)N[C@@H](CCS(C)(=O)=O)C(=O)N[C@@H](CCC(=O)N[C@H](C(N)=O)[C@@H](C)O)C(=O)O)C(C)C

These binders were tested against human GLP-1 receptor (GLP1R) (human, UniProt P43220 24-463) (assay: cell-based or functional assay).
With B1 the “GLP1R EC50 human” value was 0.26 nM.
In the case of B2, the “GLP1R EC50 human” value is reported as 0.088 nM.
With B3 the “GLP1R EC50 human” value was 0.14 nM.
B4 was tested, and the “GLP1R EC50 human” value was 0.078 nM.
In the case of B5, the “GLP1R EC50 human” value is reported as 0.12 nM.
B6 was tested, and the “GLP1R EC50 human” value was 0.036 nM.
For B7, the “GLP1R EC50 human” value was 0.253 nM.

The binders below were run against human Glucagon receptor (GCGR) (human, UniProt P47871 26-477) (assay: cell-based or functional assay).
Chain of human Glucagon receptor (GCGR) (P47871 26-477): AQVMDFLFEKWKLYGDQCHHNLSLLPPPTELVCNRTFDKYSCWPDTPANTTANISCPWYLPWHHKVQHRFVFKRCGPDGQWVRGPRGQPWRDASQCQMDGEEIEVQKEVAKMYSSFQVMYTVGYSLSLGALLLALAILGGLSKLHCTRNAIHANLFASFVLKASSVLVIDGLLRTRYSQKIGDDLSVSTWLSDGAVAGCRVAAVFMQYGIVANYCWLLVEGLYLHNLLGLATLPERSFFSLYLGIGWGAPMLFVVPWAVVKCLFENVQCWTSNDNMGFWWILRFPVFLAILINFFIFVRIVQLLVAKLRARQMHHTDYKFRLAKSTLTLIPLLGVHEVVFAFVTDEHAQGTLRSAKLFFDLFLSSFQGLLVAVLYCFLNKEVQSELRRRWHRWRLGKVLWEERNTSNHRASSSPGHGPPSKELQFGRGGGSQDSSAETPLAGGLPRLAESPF
With B1 the “GCGR EC50 human” value was 0.21 nM.
B2 was tested, and the “GCGR EC50 human” value was 0.2 nM.
With B3 the “GCGR EC50 human” value was 0.21 nM.
With B4 the “GCGR EC50 human” value was 0.156 nM.
With B5 the “GCGR EC50 human” value was 0.084 nM.
With B6 the “GCGR EC50 human” value was 0.07 nM.
B7 was tested, and the “GCGR EC50 human” value was 0.67 nM.
